The results in this text go back to paper PMC12589307, “^1H, ^13C, and ^15N resonance assignment of the C terminal region of the disordered postsynaptic scaffold protein GKAP” (Biomolecular Nmr Assignments, 2025).

The experiment addresses T1, Shank1-PDZ (UniProt Q9WV48, residues 654-768) (UniProt Q9WV48 654-768).
T1 construct: Shank1 PDZ domain, UniProt Q9WV48, residues 654-768; 100% identical with the human homolog Q9Y566 residues 654-768; also called Shank-PDZ; source: production and purification by the protocol of Sánta et al. 2022
T1 sequence (looked up): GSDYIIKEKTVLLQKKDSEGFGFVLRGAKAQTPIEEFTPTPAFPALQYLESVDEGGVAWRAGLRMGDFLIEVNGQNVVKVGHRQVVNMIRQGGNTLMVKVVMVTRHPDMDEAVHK
Description: BLI; BLItz instrument, NTA biosensors; His-tagged GKAP-Ct43 immobilised as bait at 200 nM; Shank1-PDZ at 4, 2, 1 and 0.5 uM; 50 mM NaPi pH 7.4, 20 mM NaCl, 20 mM imidazole, 0.1% BSA, 0.02% Tween20; room temperature (no temperature control); global fit, average of three independent measurements. The note with it: both partners purified. For orientation: In BLI a coated tip is dipped into the sample, and binding shifts an interference pattern.

Where no end group is shown, it is not given here.

What is called Kd is the free concentration of one partner at which half of the binding sites on the other are occupied at equilibrium, for simple one-to-one binding.

B1: GKAP-Ct43, C-terminal 43 residues of Rattus norvegicus GKAP, with 6xHis tag kept (domain or fragment)
chain: GSHMSSQRQEARKRLMAAKRAASVRQNSATESAESIEIYIPEAQTRL
modifications: also: 6xHis tag named, not in given chain
notes: vector-derived residues that remain N-terminal after TEV cleavage; in the uncleaved BLI construct they follow the 6xHis tag and the TEV site; Guanylate kinase-associated protein GKAP (rGKAP1a), Rattus norvegicus, UniProt P97836, residues 950-992; 100% identical to human DLGAP1 O14490 residues 935-977; Modified pET-15b vector with 6xHis tag and TEV site; also called rGKAP1a C-terminus; source: TEV …
B1 had a Kd of 3.1 ± 0.7 µM.
